Common to all, as to assay: cell_activity; 293H endogenous locus, 5 ug plasmid
Common to all, as to conditions: tags: RM2 linker between monomers

The target in data set [1] is T1, SCOH-NANOG2 pCLS4418 (single-chain I-CreI variant).
T1 chain: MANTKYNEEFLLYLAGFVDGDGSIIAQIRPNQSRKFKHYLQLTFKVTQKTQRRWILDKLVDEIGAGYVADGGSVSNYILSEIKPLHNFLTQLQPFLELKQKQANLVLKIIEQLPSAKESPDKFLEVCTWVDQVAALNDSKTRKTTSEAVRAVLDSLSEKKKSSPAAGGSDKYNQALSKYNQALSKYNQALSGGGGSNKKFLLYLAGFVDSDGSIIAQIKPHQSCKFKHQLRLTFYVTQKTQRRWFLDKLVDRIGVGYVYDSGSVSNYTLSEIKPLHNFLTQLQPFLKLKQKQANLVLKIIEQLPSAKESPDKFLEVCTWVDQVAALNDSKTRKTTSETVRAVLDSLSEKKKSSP
Here is the method:
(§1) Single Chain I-CreI variants targeting respectively NANOG2 and NANOG4 targets were cloned in the pCLS1853 plasmid. The resulting plasmids, respectively pCLS4415, pCLS4416, pCLS4417, pCLS4418, pCLS4421 and pCLS4422 were used for this experiment. The day of […], cells from the human embryonic kidney cell line, 293-H (Invitrogen) were seeded in a 10 cm dish at density of 1×10⁶ cells/dish. The following day, cells were transfected with 10 μg of total DNA corresponding to the combination of an empty plasmid with a meganuclease-expressing plasmid using lipofectamine (Invitrogen). Plasmid ratio (empty/meganuclease plasmid) used were 10 μg/0 μg, 9 μg/1 μg, 5 μg/5 μg 0 μg/10 μg. 48 hours after transfection, cells were collected and diluted (dilution 1/20) in fresh culture medium. After 7 days of culture, cells were collected and genomic DNA extracted. 300 ng of genomic DNA were used to amplify the endogenous locus surrounding the meganuclease cleavage site by PCR amplification.
(§2) PCR amplification was performed to obtain a fragment flanked by specific adaptator sequences (SEQ ID NO 63; 5′-[…]-3′ and SEQ ID NO 64; 5′-[…]-3′) provided by the company offering sequencing service (GATC Biotech AG, Germany) on the 454 sequencing system (454 Life Sciences). An average of 18,000 sequences was obtained from pools of 2 amplicons (500 ng each). After sequencing, different samples were identified based on barcode sequences introduced in the first of the above adaptators.
(§3) Sequences were then analyzed for the presence of insertions or deletions events (InDel) in the cleavage site of each NANOG target.

The target in data set [2] is T2, SCOH-NANOG2 pCLS4415 (single-chain I-CreI variant).
T2 chain: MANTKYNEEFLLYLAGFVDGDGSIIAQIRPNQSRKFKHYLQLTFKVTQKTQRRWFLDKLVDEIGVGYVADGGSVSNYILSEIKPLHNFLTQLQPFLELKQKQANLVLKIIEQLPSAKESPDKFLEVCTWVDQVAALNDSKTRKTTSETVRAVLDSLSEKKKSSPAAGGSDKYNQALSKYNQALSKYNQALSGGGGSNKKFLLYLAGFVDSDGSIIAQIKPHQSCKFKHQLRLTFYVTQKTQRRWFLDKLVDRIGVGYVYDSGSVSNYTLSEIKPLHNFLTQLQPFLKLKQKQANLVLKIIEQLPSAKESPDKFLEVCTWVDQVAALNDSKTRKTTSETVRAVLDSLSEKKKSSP
The protocol:
as §1, §2, §3

For data set [3], the target named is T3, SCOH-NANOG2 pCLS4416 (single-chain I-CreI variant).
T3 chain: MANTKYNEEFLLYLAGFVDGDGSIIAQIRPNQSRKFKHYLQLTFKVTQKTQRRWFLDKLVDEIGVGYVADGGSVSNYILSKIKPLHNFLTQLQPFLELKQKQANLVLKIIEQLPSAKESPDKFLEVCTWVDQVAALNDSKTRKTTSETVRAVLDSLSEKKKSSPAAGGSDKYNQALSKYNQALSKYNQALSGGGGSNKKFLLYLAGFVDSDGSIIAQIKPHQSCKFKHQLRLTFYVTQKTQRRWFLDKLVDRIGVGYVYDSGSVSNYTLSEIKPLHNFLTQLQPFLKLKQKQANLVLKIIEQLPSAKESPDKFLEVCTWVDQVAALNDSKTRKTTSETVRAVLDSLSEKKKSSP
Here is the method: as §1, §2, §3

Results on one molecule are retold here after patent US20130189759, “MEGANUCLEASES VARIANTS CLEAVING A DNA TARGET SEQUENCE IN THE NANOG GENE AND USES THEREOF” (Cellectis, published 2013).

B1: NANOG2 (NANOG2.1) target (dsDNA)
DNA 1: CCAACATCCTGAACCTCAGCTACA
DNA 2: TGTAGCTGAGGTTCAGGATGTTGG
As for B1, the activity was 0.317 % InDel in data set [1], 0.276 % InDel in data set [2] and 0.222 % InDel in data set [3].
